Experiments:
Assay in all cases: ITC; MicroCal iTC200, 25°C, 20 mM Tris/HCl pH 9.0, 100 mM NaCl; SH3B6, sdAb19 or Neffin at 200 μM injected from the syringe into 20 μM Nef in the cell
[1] = molecular target: HIV-1 NefSF2 (45–210, C59S, C210A) (HIV-1 (SF2)) (UniProt P03407)
[2] = molecular target: HIV-1 NefNA7 (41–206, C206A) (HIV-1 (NA7))
[3] = molecular target: HIV-1 Nef_(NL4–3) (41–206, C206A) (HIV-1 (NL4-3))

| Substance | Kd [1] [nM] | dH [1] [kcal/mol] | stoichiometry N [1] | Kd [2] [nM] | dH [2] [kcal/mol] | stoichiometry N [2] | Kd [3] [nM] | dH [3] [kcal/mol] | stoichiometry N [3] |
| --- | --- | --- | --- | --- | --- | --- | --- | --- | --- |
| Neffin_(triple) (Neffin with D60R/G102R/S103E in the sdAb19 subunit) (from UniProt P08631 77-138) (designed binder) | 23.3 | -18.1 | 1.08 | – | – | – | – | – | – |
| Neffin (sdAb19–SH3B6 fusion, 8 aa linker) (from UniProt P08631 77-138) (designed binder) | 1.6 | -38.3 | 0.66 | 14.4 | -34.7 | 0.67 | 3.9 | -33.2 | 0.65 |
| human Hck-SH3B6 (residues 79–138 of human Hck) (from UniProt P08631 79-138) (designed binder) | 18.7 | -22.5 | 0.81 | – | – | – | – | – | – |
